Results as given in patent US20100226910.

Target: Synthetic human amyloid protein Aβ1-42 or Aβ1-40 (UniProt P05067)
Sequence (P05067 whole entry, looked up, tested part not stated): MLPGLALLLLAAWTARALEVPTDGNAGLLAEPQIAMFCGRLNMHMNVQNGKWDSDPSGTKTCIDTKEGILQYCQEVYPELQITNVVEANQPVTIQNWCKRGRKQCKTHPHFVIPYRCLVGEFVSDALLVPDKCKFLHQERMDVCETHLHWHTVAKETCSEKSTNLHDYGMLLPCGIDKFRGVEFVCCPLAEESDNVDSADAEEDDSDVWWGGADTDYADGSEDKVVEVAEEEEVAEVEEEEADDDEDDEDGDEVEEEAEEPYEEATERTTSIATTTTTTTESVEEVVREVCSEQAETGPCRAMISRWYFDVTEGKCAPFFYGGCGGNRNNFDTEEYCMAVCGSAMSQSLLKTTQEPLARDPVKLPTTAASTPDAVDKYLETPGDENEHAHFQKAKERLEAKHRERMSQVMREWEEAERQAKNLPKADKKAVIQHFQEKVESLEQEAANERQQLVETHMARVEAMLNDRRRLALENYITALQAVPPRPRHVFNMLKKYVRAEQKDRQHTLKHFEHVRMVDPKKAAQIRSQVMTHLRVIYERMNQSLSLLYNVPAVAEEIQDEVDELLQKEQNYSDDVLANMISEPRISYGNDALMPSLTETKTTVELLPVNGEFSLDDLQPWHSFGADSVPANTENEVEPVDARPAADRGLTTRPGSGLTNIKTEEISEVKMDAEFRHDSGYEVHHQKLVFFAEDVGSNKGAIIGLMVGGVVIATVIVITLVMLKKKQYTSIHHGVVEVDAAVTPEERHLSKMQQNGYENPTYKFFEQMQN

Substance: KLK1 (Sigma)
- cleavage of amyloid fibrils in vitro, mass spectra after digestion: KLK1 cleaves amyloid fibrils (FIG. 1); in panel C, there is a clear peak at about 2423 M/Z (mass to charge ration), which is an indication of cleavage
- cleavage of soluble amyloid in vitro, mass spectra after digestion: In panel B, there are no visible peaks when KLK1 was added to soluble amyloid. This indicates that KLK1 cleaved the soluble amyloid into smaller fragments
